From the RNAGym collection of RNA variant scans (doi:10.7554/elife.80360) come the findings set out here.

B1: CPEB3 Ribozyme (parent)
chain: GGGGGCCACAGCAGAAGCGUUCACGUCGCGGCCCCUGUCAGAUUCUGGUGAAUCUGCGAAUUCUGCUGU

In the series the parent is B1. In words: self-cleavage, relative activity (ratio to wild type); higher = more cleavage; co-transcriptional.
For G30C C35U, the self-cleavage came out at 0.398.

In the case of G30C C35A, the self-cleavage came to 0.254.

In the case of C32G A51G, the self-cleavage was 0.48.

With G31A U38A, the self-cleavage was 0.726.

With G31A U38G, the self-cleavage worked out at 0.245.

As to G31C G50A, the self-cleavage was 0.214.

For the variant C32A G41C, the self-cleavage stood at 0.322.

On to G30U A60G, for which the self-cleavage turned out to be 0.176.

Consider G30C U44C, for which the self-cleavage is 0.466.

Turning to G30C U44A, the self-cleavage came to 0.594.

On to G30C U44G, for which the self-cleavage turned out to be 0.549.

Regarding C32U G41C, the self-cleavage amounted to 0.858.

In the case of C32U G41U, the self-cleavage worked out at 0.856.

On to G31C G41U, for which the self-cleavage was found to be 0.217.

As for G31C G65C, the self-cleavage is 0.185.

C32A U49G: the self-cleavage is 0.626.

For C32A G50U, the self-cleavage turned out to be 0.707.

As for G31A C57G, the self-cleavage is 0.254.

As to G30U G65A, the self-cleavage turned out to be 0.203.

On to C32G G50A, for which the self-cleavage came out at 0.554.

As to C32G U36A, the self-cleavage was found to be 0.255.

Take C32G U36C: the self-cleavage was determined as 0.215.

On to G31C C57A, for which the self-cleavage was determined as 0.163.

In the case of G31C C57U, the self-cleavage was 0.184.

Consider G30C A40U, for which the self-cleavage was 0.296.

On to G31A A42C, for which the self-cleavage is 0.601.

Take G30U C57G: the self-cleavage is 0.186.

For the variant G30A U36G, the self-cleavage was determined as 0.166.

Consider C32A U38A, for which the self-cleavage was found to be 0.791.

Turning to C32U G48U, the self-cleavage is 0.964.

In the case of C32U G48C, the self-cleavage amounted to 0.984.

Take C32U G48A: the self-cleavage came out at 1.

Take G30C G37U: the self-cleavage is 0.175.

For the variant G30C G37C, the self-cleavage came out at 0.204.

Take G30C G37A: the self-cleavage stood at 0.146.

C32U C57A: the self-cleavage amounted to 0.339.

Regarding C32A U44C, the self-cleavage was determined as 0.482.

For the variant G31C A51U, the self-cleavage was determined as 0.237.

As for G31C A51C, the self-cleavage stood at 0.161.

Take G31C A51G: the self-cleavage was 0.364.

For the variant C32G A42U, the self-cleavage came to 0.44.

For the variant C32G A42G, the self-cleavage worked out at 0.569.

For the variant C32G A42C, the self-cleavage is 0.343.

For C32U U53C, the self-cleavage was found to be 0.875.

Regarding C32G A59C, the self-cleavage was 0.243.

Consider C32A A59U, for which the self-cleavage was 0.445.

As to C32G U64C, the self-cleavage was found to be 0.311.

As to G30U U62A, the self-cleavage turned out to be 0.2.

For C32G A60C, the self-cleavage was 0.194.

Turning to C32G A60U, the self-cleavage is 0.19.

Regarding G31C U53C, the self-cleavage was determined as 0.237.

With G31C U53G, the self-cleavage is 0.139.

Turning to G30U C34A, the self-cleavage was found to be 0.259.

For the variant G30C U64C, the self-cleavage was 0.478.

Regarding G30C U64A, the self-cleavage amounted to 0.467.

Consider G30C U64G, for which the self-cleavage came to 0.455.

As for C32A U62G, the self-cleavage came out at 0.324.

As for C32A U62A, the self-cleavage is 0.281.

On to G31A G65C, for which the self-cleavage stood at 0.539.

Take G31A G65U: the self-cleavage was 0.594.

With G31A G65A, the self-cleavage stood at 0.711.

For the variant G31U U53C, the self-cleavage turned out to be 0.354.

Take G30U G31U: the self-cleavage came out at 0.18.

For the variant G31A G37U, the self-cleavage amounted to 0.213.

G31U C35A: the self-cleavage turned out to be 0.26.

With G31U C35U, the self-cleavage was determined as 0.363.

C32A G65C: the self-cleavage was found to be 0.459.

C32A G65U: the self-cleavage was 0.418.

In the case of C32U U61A, the self-cleavage was 0.893.

Turning to C32A C35U, the self-cleavage turned out to be 0.333.

As for C32A C35G, the self-cleavage worked out at 0.163.

G31U A60C: the self-cleavage came to 0.291.

With G30C U67G, the self-cleavage was found to be 0.94.

Take G30C U67C: the self-cleavage turned out to be 0.883.

For G30A U46G, the self-cleavage was determined as 0.888.

For C32A C45A, the self-cleavage came out at 0.586.

Turning to C32A C45U, the self-cleavage is 0.753.

On to G30U U69G, for which the self-cleavage is 0.792.

Take G30U U69C: the self-cleavage was 0.865.

In the case of C32G G56A, the self-cleavage worked out at 0.354.

With C32G G56U, the self-cleavage was 0.308.

For the variant C32G G56C, the self-cleavage was 0.218.

C32U G37C: the self-cleavage came out at 0.241.

C32U G37A: the self-cleavage was found to be 0.288.

With G30A U64A, the self-cleavage is 0.634.

As for G30A U64G, the self-cleavage turned out to be 0.624.

For the variant G31C A59G, the self-cleavage was determined as 0.255.

In the case of G30C C33G, the self-cleavage turned out to be 0.302.

Regarding G30C C33A, the self-cleavage was determined as 0.248.

On to C32A C63A, for which the self-cleavage turned out to be 0.317.

As to G30U A52U, the self-cleavage stood at 0.342.

On to C32U C33G, for which the self-cleavage amounted to 0.374.

For G31U A51C, the self-cleavage is 0.628.

Take G31U A51U: the self-cleavage turned out to be 0.805.

For G31U U49G, the self-cleavage worked out at 0.421.

As to G31A U64A, the self-cleavage came to 0.511.

Turning to G31A U64C, the self-cleavage stood at 0.757.

On to G30U U61A, for which the self-cleavage came to 0.177.

Consider G30U U61G, for which the self-cleavage came to 0.215.

Regarding G31C U64G, the self-cleavage was 0.251.

For G30C U46A, the self-cleavage turned out to be 0.706.

With G30C U46C, the self-cleavage stood at 0.613.

As to G30C A51U, the self-cleavage is 0.61.

C32G G41U: the self-cleavage amounted to 0.328.

With G31U U36C, the self-cleavage was 0.516.

Regarding C32A G68C, the self-cleavage amounted to 0.913.

For the variant C32A U69G, the self-cleavage came out at 0.983.

For the variant C32A U69A, the self-cleavage was determined as 0.965.

With G30C C54A, the self-cleavage was 0.346.

Take C32G G48C: the self-cleavage was 0.604.

As for G30U G37U, the self-cleavage turned out to be 0.166.

As for C32G U61G, the self-cleavage was determined as 0.342.

For C32G U61C, the self-cleavage turned out to be 0.285.

Take G30C U53A: the self-cleavage was 0.437.

Consider G31U U64G, for which the self-cleavage came out at 0.479.

In the case of G30A U44G, the self-cleavage was 0.579.

C32U U62A: the self-cleavage was 0.979.

With G31A C34G, the self-cleavage worked out at 0.262.

As for G31A C34U, the self-cleavage was found to be 0.605.

Take G31U C54A: the self-cleavage is 0.306.

Consider G30U G41C, for which the self-cleavage was determined as 0.209.

As for C32A U53A, the self-cleavage came to 0.501.

Regarding C32G U53C, the self-cleavage worked out at 0.217.

With C32G U53G, the self-cleavage came out at 0.382.

G31A C32G: the self-cleavage is 0.259.

For G31C C33U, the self-cleavage amounted to 0.45.

For the variant C32U A52C, the self-cleavage worked out at 0.913.

Consider G30A U38A, for which the self-cleavage is 0.621.

On to G31U G37A, for which the self-cleavage was 0.206.

As to G30U G47C, the self-cleavage amounted to 0.395.

Take G30U G47A: the self-cleavage was found to be 0.436.

In the case of C32U C35U, the self-cleavage was found to be 0.77.

In the case of C32U C35A, the self-cleavage turned out to be 0.25.

As for C32A G37A, the self-cleavage was 0.263.

Turning to C32A G37U, the self-cleavage worked out at 0.18.

In the case of C32G G47U, the self-cleavage turned out to be 0.514.

On to C32G C39A, for which the self-cleavage is 0.282.

Consider C32G C39G, for which the self-cleavage was determined as 0.389.

As to G30C C34G, the self-cleavage was 0.259.

As for C32U U38A, the self-cleavage is 0.947.

In the case of C32U U38G, the self-cleavage was 0.294.

G30U C45U: the self-cleavage came out at 0.329.

Consider G30U C45A, for which the self-cleavage is 0.335.

In the case of G31U A59C, the self-cleavage was found to be 0.356.

Turning to G31U A59G, the self-cleavage amounted to 0.514.

In the case of C32G C66A, the self-cleavage worked out at 0.256.

As for C32G C66U, the self-cleavage came out at 0.394.

For the variant G31U G41C, the self-cleavage was found to be 0.283.

Regarding G31U G41A, the self-cleavage amounted to 0.348.

In the case of G30A U67C, the self-cleavage came out at 0.959.

As for C32U U44C, the self-cleavage stood at 0.938.

On to C32U U44G, for which the self-cleavage amounted to 0.941.

For G31U G58U, the self-cleavage amounted to 0.86.

Regarding G31U G58A, the self-cleavage came out at 0.482.

C32U C34U: the self-cleavage was determined as 0.924.

As for C32U C34G, the self-cleavage was found to be 0.413.

With G31C C32G, the self-cleavage stood at 0.249.

Consider G30U G68U, for which the self-cleavage worked out at 0.78.

Turning to G30U G68A, the self-cleavage amounted to 0.88.

Regarding G31U U62A, the self-cleavage worked out at 0.27.

In the case of G31C U38A, the self-cleavage was found to be 0.237.

As for G30U A42G, the self-cleavage is 0.27.

G31C G68A: the self-cleavage came to 0.515.

For C32G C54U, the self-cleavage is 0.594.

Take G30C G50U: the self-cleavage was 0.679.

As for G30C G50A, the self-cleavage came out at 0.621.

Turning to G30C G50C, the self-cleavage is 0.536.
